Test results from patent publication US20240425593A1 (SICHUAN KELUN BIOTECH BIOPHARMACEUTICAL, published 2024).
Like-named read-outs stand apart in the source and are kept apart here. Each block holds one binder with its values, some of them ahead of it.

Legend:
[1] = target: PD-1 on Jurkat-PD-1-NFAT cells (UniProt Q15116 25-288, limits assumed); assay: cell-based or functional assay
human ICOS = target: T1, human ICOS (human, UniProt Q9Y6W8 21-140, limits assumed); assay: ELISA, coated antigen 1 µg/mL
T1 construct: Bought
T1 sequence (looked up): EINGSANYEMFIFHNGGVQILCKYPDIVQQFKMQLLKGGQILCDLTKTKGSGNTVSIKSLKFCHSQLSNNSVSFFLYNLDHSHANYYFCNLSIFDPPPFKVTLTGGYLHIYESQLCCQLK
Description: (§1) After washing, a goat anti-human IgG secondary antibody labeled with horseradish peroxidase diluted in phosphate buffer (PBS) containing 2% BSA in a ratio of 1:15000 was added, followed by incubating at 37° C. for 1 hour. After washing, the TMB chromogen solution was used for developing, and the absorbance value was read using a microplate reader at 450 nm. The data were imported into Graphprism to calculate EC₅₀ values.

human PD-1-ECD-mFc = target: T2, human PD-1-ECD-mFc (human; mouse, UniProt Q15116 25-170); assay: ELISA, coated human PD-1-mFc
T2 construct: extracellular domain; Made in HEK293F cells; also called human PD-1-mFc; PD-1-mFc; not shown: mouse Fc (mFc) amino acids, AB097847.1

monkey PD-1-hFc [2] = target: T3, monkey PD-1-hFc (monkey); assay: ELISA, coated monkey PD-1-hFc
T3 construct: Extracellular domain of monkey PD-1 fused to an hFc tag, made in house; not shown: The hFc tag and any linker
T3 chain: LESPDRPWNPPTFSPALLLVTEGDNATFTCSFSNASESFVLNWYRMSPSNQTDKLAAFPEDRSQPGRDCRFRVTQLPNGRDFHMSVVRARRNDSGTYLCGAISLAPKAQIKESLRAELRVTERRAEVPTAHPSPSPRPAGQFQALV
Description: (§2) The specific experimental steps were as follows: human PD-1-hFc and monkey PD-1-hFc antigens were diluted to 1 μg/mL with CBS solution, then coated on a 96-well ELISA plate (purchased from Guangzhou Jiete Bio) at 4° C. overnight. […] After washing, a goat anti-human secondary antibody (FC) labeled with horseradish peroxidase diluted in phosphate buffer (PBS) containing 2% BSA in a ratio of 1:15000 was added, followed by incubating at 37° C. for 1 hour. After washing, the TMB chromogen solution was used for developing, and the absorbance value was read using a microplate reader at 450 nm, and the data were imported into Graphprism to calculate EC₅₀ values.

[3] = target: T4, full-length human PD-1 on CHO-hPD-1 cells (human, UniProt Q15116 25-288); assay: flow cytometry, FITC-labelled antibody on CHO-hPD-1 cells
T4 construct: whole, on cells; also called PD-1 on the cell membrane surface of CHO-hPD-1

[4] = target: T4, full-length human PD-1 on CHO-hPD-1 …; assay: competitive FACS on CHO-hPD-1 cells, competitor PD-L1-mFc-Bio
Text: (§3) The data were imported into Graphprism to calculate IC₅₀ values.

FcRn protein = target: T5, FcRn protein (UniProt P55899 24-297; P61769 21-119); assay: BLI (Octet ForteBio), FcRn on SA biosensor, antibody in PBST pH6.0
T5 construct: Immobilised on an SA biosensor
Text: The antibody Fc can bind to FcRn so that it cannot be easily cleared in vivo, thus prolonging the half-life in vivo.

[5] = target: T4, full-length human PD-1 on CHO-hPD-1 …; assay: flow cytometry on CHO-hPD-1 cells with FITC-labeled antibody
human PD-1-His = target: T6, human PD-1-His (human, UniProt Q15116 25-170); assay: BLI (Octet ForteBio), antibody on ProA biosensor, PD-1-His in solution
T6 construct: extracellular domain; not shown: His tag

human BTLA-his = target: T7, human BTLA-his (human, UniProt Q7Z6A9 31-157, limits assumed); assay: ELISA on coated human BTLA-his, HRP goat anti-human IgG detection
T7 construct: Bought; not shown: His tag
Description: as §1

human PD-L1-his = target: T8, human PD-L1-his (human, UniProt Q9NZQ7 19-239, limits assumed); assay: ELISA on coated human PD-L1-his, HRP goat anti-human IgG detection
T8 construct: Bought; not shown: His tag
Description: as §1

CD64 protein [6] = target: T9, CD64 protein (UniProt P12314 16-288, limits assumed); assay: BLI (Octet ForteBio), CD64 immobilised on an SA biosensor, antibody in solution
T9 construct: also called FcγRI

[7] = target: T4, full-length human PD-1 on CHO-hPD-1 …; assay: competitive flow cytometry on CHO-hPD-1 cells; blocked ligand PD-L1 (PD-L1-mFc-Bio)
Text: as §3

CD64 protein [8] = target: T9, CD64 protein; assay: BLI (Octet ForteBio), CD64 immobilised on an SA biosensor, antibody in solution; remark: listed apart in the source
human PD-1-hFc [9] = target: T10, human PD-1-hFc (human, UniProt Q15116 25-170); assay: ELISA, coated human PD-1-hFc
T10 construct: extracellular domain; Extracellular domain of human PD-1 fused to an hFc tag, made in house; not shown: hFc tag
Description: (§4) In order to verify the binding affinity of murine anti-PD-1 antibody to human PD-1-hFc and monkey PD-1-hFc, ELISA was used. The specific experimental steps are as follows: human PD-1-hFc and monkey PD-1-hFc were diluted to 1 μg/mL with CBS solution, and then coated on a 96-well ELISA plate (purchased from Guangzhou Jiete Bio) at 4° C. overnight. […] After washing, a goat anti-mouse secondary antibody (FC) labeled with horseradish peroxidase diluted in phosphate buffer (PBS) containing 2% BSA in a ratio of 1:15000 was added, followed by incubating at 37° C. for 1 hour. After washing, the TMB chromogen solution was used for developing, and the absorbance value was read using a microplate reader at 450 nm. The data were imported into Graphprism to calculate the EC₅₀ value.

[10] = target: T4, full-length human PD-1 on CHO-hPD-1 …; assay: flow cytometry on CHO-hPD-1 cells
Text: (§5) In order to verify the binding of anti-human PD-1 murine antibody to PD-1 on the cell membrane surface, FACS technology was used to detect the affinity between murine antibodies and CHO-hPD-1 cells.

monkey PD-1-hFc [11] = target: T3, monkey PD-1-hFc; assay: ELISA, coated monkey PD-1-hFc
Description: as §4

human PD-1-hFc [12] = target: T10, human PD-1-hFc; assay: competitive ELISA, coated human PD-1-hFc, competitor biotinylated PD-L1-mFc
Description: as §2, with “human” for “human PD-1-hFc and monkey”, “streptavidin” for “a goat anti-human secondary antibody (FC)”, “room temperature” for “37° C.”, “the IC₅₀ value.” for “EC₅₀ values.”

[13] = target: T4, full-length human PD-1 on CHO-hPD-1 …; assay: flow cytometry on CHO-hPD-1 cells, FITC anti-mouse IgG secondary antibody
Text: as §5

B1: 35E6-HZ1-IgG1-1D (antibody)
heavy: QVQLQESGPGLVKPSETLSLTCTVSGYSITSDYWSWIRQPPGKGLEWIGYINYDGDNNYNPSLKSRVTISRDTSKNQFSLKLSSVTAADTAVYYCARGGFDYWGQGTLVTVSSASTKGPSVFPLAPSSKSTSGGTAALGCLVKDYFPEPVTVSWNSGALTSGVHTFPAVLQSSGLYSLSSVVTVPSSSLGTQTYICNVNHKPSNTKVDKRVEPKSCDKTHTCPPCPAPEAAGGPSVFLFPPKPKDTLMISRTPEVTCVVVAVSHEDPEVKFNWYVDGVEVHNAKTKPREEQYNSTYRVVSVLTVLHQDWLNGKEYKCKVSNKALPAPIEKTISKAKGQPREPQVYTLPPSREEMTKNQVSLTCLVKGFYPSDIAVEWESNGQPENNYKTTPPVLDSDGSFFLYSKLTVDKSRWQQGNVFSCSVMHEALHAHYTQKSLSLSPGK
light: EIVLTQSPATLSLSPGERATLSCRASESVEYYGTNLMQWYQQKPGQPPRLLIYFASNVASGIPARFSGSGSGTDFTLTISSLEPEDFAVYFCQQSKKVPSTFGQGTKVEIKRTVAAPSVFIFPPSDEQLKSGTASVVCLLNNFYPREAKVQWKVDNALQSGNSQESVTEQDSKDSTYSLSSTLTLSKADYEKHKVYACEVTHQGLSSPVTKSFNRGEC
notes: also called IgG1-1D mutant anti-PD-1 humanized antibody
EC50 by the PD-1/PD-L1 luciferase reporter system [1]: 2.81 nM | binding result (human ICOS): no binding (tested: 10 µg/mL and 1 µg/mL) | EC50 (human PD-1-ECD-mFc): 0.121 nM | EC50 (monkey PD-1-hFc [2]): 0.309 nM | EC50 [3]: 0.078 nM | IC50 [4]: 0.818 ng/mL | Kd (FcRn protein): 7.89 nM | koff (FcRn protein): 0.00746 s⁻¹ | kon (FcRn protein): 946000 M⁻¹ s⁻¹ | EC50 (read off the curve) [5]: ~10 ng/mL | Kd (human PD-1-His): 1.32 nM | koff (human PD-1-His): 0.000306 s⁻¹ | kon (human PD-1-His): 333000 M⁻¹ s⁻¹ | binding result (human BTLA-his): no binding (tested: 10 ug/mL) | binding result (human PD-L1-his): no binding (tested: 10 ug/mL) | binding result (CD64 protein [6]): no binding | IC50 (read off the curve) [7]: ~100 ng/mL

B2: 91D5-HZ2-IgG1-1D (antibody)
heavy: EVQLVQSGAEVKKPGASVKVSCKASGYTFTDYYMNWVREAPGQGLEWMGEINPKYGDTTYNQKFKDRATLTVDKSTSTAYMELSSLRSDDTAVYYCAKGIRLFDSWGQGTLVTVSSASTKGPSVFPLAPSSKSTSGGTAALGCLVKDYFPEPVTVSWNSGALTSGVHTFPAVLQSSGLYSLSSVVTVPSSSLGTQTYICNVNHKPSNTKVDKRVEPKSCDKTHTCPPCPAPEAAGGPSVFLFPPKPKDTLMISRTPEVTCVVVAVSHEDPEVKFNWYVDGVEVHNAKTKPREEQYNSTYRVVSVLTVLHQDWLNGKEYKCKVSNKALPAPIEKTISKAKGQPREPQVYTLPPSREEMTKNQVSLTCLVKGFYPSDIAVEWESNGQPENNYKTTPPVLDSDGSFFLYSKLTVDKSRWQQGNVFSCSVMHEALHAHYTQKSLSLSPGK
light: DIQLTQSPSSLSASVGDRVTITCRPSGNVHNYFAWYQQKPGKSPKLLVYNAKTLAEGVPSRFSGSGSGTDYTLTISSLQPEDFATYYCHHYYTAPFTFGGGTKVEIKRTVAAPSVFIFPPSDEQLKSGTASVVCLLNNFYPREAKVQWKVDNALQSGNSQESVTEQDSKDSTYSLSSTLTLSKADYEKHKVYACEVTHQGLSSPVTKSFNRGEC
notes: as for B1
EC50 by the PD-1/PD-L1 luciferase reporter system [1]: 3.48 nM | binding result (human ICOS): no binding (tested: 10 µg/mL and 1 µg/mL) | EC50 (human PD-1-ECD-mFc): 0.104 nM | EC50 (monkey PD-1-hFc [2]): 0.25 nM | EC50 [3]: 0.093 nM | IC50 [4]: 1.32 ng/mL | Kd (FcRn protein): 5.33 nM | koff (FcRn protein): 0.00725 s⁻¹ | kon (FcRn protein): 1.36e+06 M⁻¹ s⁻¹ | EC50 (read off the curve) [5]: ~10 ng/mL | Kd (human PD-1-His): 1.17 nM | koff (human PD-1-His): 0.00023 s⁻¹ | kon (human PD-1-His): 384000 M⁻¹ s⁻¹ | binding result (human BTLA-his): no binding (tested: 10 ug/mL) | binding result (human PD-L1-his): no binding (tested: 10 ug/mL) | binding result (CD64 protein [8]): no binding | IC50 (read off the curve) [7]: ~200 ng/mL

The next lines start with the values.

EC50 (human PD-1-hFc [9]): 0.0355 nM | EC50 [10]: 3.12 nM | EC50 (monkey PD-1-hFc [11]): 0.0344 nM | IC50 (human PD-1-hFc [12]): 2.93 nM | EC50 (read off the curve) [13]: ~3 nM
B3: murine antibody 29C6 (antibody, V domains shown)
VH: QVQLEESGPELVKPGASVKISCKTSGYTFTEYTIYWVKQSHGKSLEWIGGINPKNGATLYNQKFKVKATLTVDKSSSTAYMELRSLTSEDSAVYYCVRDYHGNSHDSMDYWGQGTSVTVSS
VL: QIVLTQSPAIMSASPGEKVTITCSASSSVSYMHWFRQKPGTSPKLWIYYTSNLASGVPAHFSGSGSGTSYSLTISRMEAEDAATYYCQQRSDYPPTFGGGTKLEIK
notes: Murine antibody from a hybridoma; also called murine PD-1 antibody 29C6

EC50 (human PD-1-hFc [9]): 0.0513 nM | EC50 [10]: 6.62 nM | EC50 (monkey PD-1-hFc [11]): 0.0595 nM | IC50 (human PD-1-hFc [12]): 4.5 nM | EC50 (read off the curve) [13]: ~7 nM
B4: murine antibody 42G1 (antibody, V domains shown)
VH: QVQLKESGAELAKPGASVKMSCEASGYALTSYWMHWVKQGPGQGLEWIGYIHPSTGYTEYNQIFEDKATLSADKSSNTAYMQLTSLTSDDSAVYYCARGAGPYYFDYWGQGTTLTVSS
VL: DIQLTQSPSSLAVSAGEKVIMSCKSSQSLLNSGTRKNYLAWYQQKPGQSPKLLIFWASTRESGVPDRFTGSGSGTDFTLTISSFQAEDLAVYYCKQSYDLITFGPGTKLEIK
notes: Murine antibody from a hybridoma; also called murine PD-1 antibody 42G1

EC50 (human PD-1-hFc [9]): 0.044 nM | EC50 (monkey PD-1-hFc [11]): 0.0685 nM | IC50 (human PD-1-hFc [12]): 4.25 nM
B5: murine antibody 91D5 (antibody, V domains shown)
VH: EVQLQQSGPELVKPGASVKISCRASGYTFTDYYMNWVKESHGKSLEWIGEINPKYGDTTYNQKFKDKATLTVDKSSSTASVELRSLTSEDSAVYYCAKGIRLFDSWGQGTTVTVSS
VL: DIQLTQSPASLSASVGETVTITCRPSGNVHNYFAWYQQKQGKSPQLLVYNAKTLAEGVPSRFSGSGSGTQYSLKINSLQPEDFGTYYCHHYYTAPFTFGSGTKLEIK
notes: Murine antibody from a hybridoma
